In patent publication US20250051474A1, “ANTI-CD97 ANTIBODIES AND ANTIBODY-DRUG CONJUGATES” (New York University, priority 2023, published 2025):
Read-outs that look alike come from different tables or passages of the source.

T1: CD97 (ADGRE5) isoform 1 ectodomain, purified and biotinylated (human, UniProt P48960 21-552, limits assumed, biotinylated in vitro using the BirA enzyme)
T1 construct: the whole entry for isoform 1 is named here; also called CD97 isoform 1; Biotinylated CD97 isoform 1
T1 sequence: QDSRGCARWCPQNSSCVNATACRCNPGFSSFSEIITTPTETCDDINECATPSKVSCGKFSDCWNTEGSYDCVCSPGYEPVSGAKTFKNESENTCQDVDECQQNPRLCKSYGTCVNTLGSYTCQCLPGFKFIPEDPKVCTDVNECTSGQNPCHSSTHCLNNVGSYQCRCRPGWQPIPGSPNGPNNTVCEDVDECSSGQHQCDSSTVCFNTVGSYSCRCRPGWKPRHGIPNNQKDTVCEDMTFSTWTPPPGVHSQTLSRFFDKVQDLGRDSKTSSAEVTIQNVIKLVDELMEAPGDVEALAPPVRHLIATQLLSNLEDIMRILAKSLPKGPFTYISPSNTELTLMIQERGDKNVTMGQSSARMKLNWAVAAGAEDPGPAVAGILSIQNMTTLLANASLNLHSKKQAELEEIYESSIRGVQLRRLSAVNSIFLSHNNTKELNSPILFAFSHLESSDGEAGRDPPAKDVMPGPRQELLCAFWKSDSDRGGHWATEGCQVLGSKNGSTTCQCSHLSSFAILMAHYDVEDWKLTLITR

T2: CD97 (ADGRE5) isoform 2 ectodomain, purified and biotinylated (human, UniProt P48960 21-552, biotinylated in vitro using the BirA enzyme)
T2 construct: the whole entry for isoform 2 is named here; also called CD97 isoform 2
T2 sequence: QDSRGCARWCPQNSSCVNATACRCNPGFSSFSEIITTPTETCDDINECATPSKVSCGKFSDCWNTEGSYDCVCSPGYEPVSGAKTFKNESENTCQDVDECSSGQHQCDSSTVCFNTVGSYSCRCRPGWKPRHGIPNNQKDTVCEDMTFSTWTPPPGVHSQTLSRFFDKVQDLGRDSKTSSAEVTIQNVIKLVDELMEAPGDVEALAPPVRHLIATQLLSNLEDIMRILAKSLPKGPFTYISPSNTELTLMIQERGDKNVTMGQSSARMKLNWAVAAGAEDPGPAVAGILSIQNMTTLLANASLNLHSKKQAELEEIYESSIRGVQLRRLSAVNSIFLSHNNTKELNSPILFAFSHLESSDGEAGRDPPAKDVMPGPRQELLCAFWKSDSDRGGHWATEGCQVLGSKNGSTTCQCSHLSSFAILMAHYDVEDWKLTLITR


Assays:
[1] = biological target: T1, CD97 (ADGRE5) isoform 1 ectodomain, …; test: bead-based binding titration (biotinylated antigen on streptavidin beads, flow cytometry), 1:1 fit
[2] = biological target: T2, CD97 (ADGRE5) isoform 2 ectodomain, …; test: as above
[3] = biological target: T1, CD97 (ADGRE5) isoform 1 ectodomain, …; test: as above; remark: listed apart in the source
[4] = biological target: T2, CD97 (ADGRE5) isoform 2 ectodomain, …; test: as above; remark: listed apart in the source
[5] = biological target: Endogenous CD97 on the cell surface (human) (UniProt P48960); test: cell-based binding titration on OCI-AML3 cells, flow cytometry, 1:1 fit

Binder	Kd [1]	Kd [2]	Kd [5]	also measured
Fab 2Z11 (Fab, V domains shown, second discovery campaign; biotinylated Fab in the bead assay; also called Antibody Clone 2Z11) VH: EVQLVESGGGLVQPGGSLRLSCAASGFTFYYSSIHWVRQAPGKGLEWVASIYSYSGYTSYADSVKGRFTISADTSKNTAYLQMNSLRAEDTAVYYCARYYISGPYYAYRSYTSYAMDYWGQGTLVTVSS VL: DIQMTQSPSSLSASVGDRVTITCRASQSVSSAVAWYQQKPGKAPKLLIYSASSLYSGVPSRFSGSRSGTDFTLTISSLQPEDFATYYCQQYWGYSLITFGQGTKVEIKR				Kd [3]: 3.4 nM; Kd [4]: 3 nM
Fab A1 (Fab, V domains shown, first discovery campaign; also called Antibody Clone A1) VH: EVQLVESGGGLVQPGGSLRLSCAASGFTISSSSIHWVRQAPGKGLEWVASIYSYYGSTYYADSVKGRFTISADTSKNTAYLQMNSLRAEDTAVYYCARPVYGQLGYWTQRWSGMDYWGQGTLVTVSS VL: DIQMTQSPSSLSASVGDRVTITCRASQSVSSAVAWYQQKPGKAPKLLIYSASSLYSGVPSRFSGSRSGTDFTLTISSLQPEDFATYYCQQYSWSSYLITFGQGTKVEIKR	1.7 nM	1.7 nM		
Fab B3 (Fab, V domains shown, first discovery campaign; also called Antibody Clone B3) VH: EVQLVESGGGLVQPGGSLRLSCAASGFTFSSSSIHWVRQAPGKGLEWVASISPYSGYTSYADSVKGRFTISADTSKNTAYLQMNSLRAEDTAVYYCARAYYYWSHWYMHYVSYPGGMDYWGQGTLVTVSS VL: DIQMTQSPSSLSASVGDRVTITCRASQSVSSAVAWYQQKPGKAPKLLIYSASSLYSGVPSRFSGSRSGTDFTLTISSLQPEDFATYYCQQLRHYSHLITFGQGTKVEIKR	5.8 nM	4.3 nM		
Antibody clone C27, human IgG1 LALA-PG format (antibody, V domains shown) VH: EVQLVESGGGLVQPGGSLRLSCAASGFTLSSSSIHWVRQAPGKGLEWVASIYSYYGSTYYADSVKGRFTISADTSKNTAYLQMNSLRAEDTAVYYCARYRGNMYYWESWYGSYWALDYWGQGTLVTVSS VL: DIQMTQSPSSLSASVGDRVTITCRASQSVSSAVAWYQQKPGKAPKLLIYSASSLYSGVPSRFSGSRSGTDFTLTISSLQPEDFATYYCQQSSSSLITFGQGTKVEIKR			9.6 nM	
Antibody clone 2V10, human IgG1 LALA-PG format (antibody, V domains shown) VH: EVQLVESGGGLVQPGGSLRLSCAASGFTISSSSIHWVRQAPGKGLEWVAYIYPSSGSTSYADSVKGRFTISADTSKNTAYLQMNSLRAEDTAVYYCARPWYYSTFNKKWWDYQGLDYWGQGTLVTVSS VL: DIQMTQSPSSLSASVGDRVTITCRASQSVSSAVAWYQQKPGKAPKLLIYSASSLYSGVPSRFSGSRSGTDFTLTISSLQPEDFATYYCQQSWWDPITFGQGTKVEIKR			0.3 nM	
Fab 2Z7 (Fab, V domains shown, second discovery campaign; biotinylated Fab in the bead assay; also called Antibody Clone 2Z7) VH: EVQLVESGGGLVQPGGSLRLSCAASGFTFSSSSIHWVRQAPGKGLEWVASISSSSGSTSYADSVKGRFTISADTSKNTAYLQMNSLRAEDTAVYYCARSYWERYYYWYYFYQYELGLDYWGQGTLVTVSS VL: DIQMTQSPSSLSASVGDRVTITCRASQSVSSAVAWYQQKPGKAPKLLIYSASSLYSGVPSRFSGSRSGTDFTLTISSLQPEDFATYYCQQSSSSLITFGQGTKVEIKR				Kd [3]: 38 nM; Kd [4]: 30 nM

Second part, led by results:

Kd [1]	Kd [2]	Kd [5]	Binder	also measured
0.9 nM	0.9 nM		Fab B23 (Fab, V domains shown, first discovery campaign; also called Antibody Clone B23) VH: EVQLVESGGGLVQPGGSLRLSCAASGFTVSSSSIHWVRQAPGKGLEWVASIYPYSGSTSYADSVKGRFTISADTSKNTAYLQMNSLRAEDTAVYYCARSLGWHRHYNYYFYFYANAIDYWGQGTLVTVSS VL: DIQMTQSPSSLSASVGDRVTITCRASQSVSSAVAWYQQKPGKAPKLLIYSASSLYSGVPSRFSGSRSGTDFTLTISSLQPEDFATYYCQQYWGSDPITFGQGTKVEIKR	
4.7 nM	5 nM		Fab C14 (Fab, V domains shown, first discovery campaign; also called Antibody Clone C14) VH: EVQLVESGGGLVQPGGSLRLSCAASGFTVSSSSIHWVRQAPGKGLEWVASIYSYSGSTSYADSVKGRFTISADTSKNTAYLQMNSLRAEDTAVYYCARSFGWGQSFYYSHYFYITAFDYWGQGTLVTVSS VL: DIQMTQSPSSLSASVGDRVTITCRASQSVSSAVAWYQQKPGKAPKLLIYSASSLYSGVPSRFSGSRSGTDFTLTISSLQPEDFATYYCQQYWHESLITFGQGTKVEIKR	
2.5 nM	2.7 nM		Fab B34 (Fab, V domains shown, first discovery campaign; also called Antibody Clone B34) VH: EVQLVESGGGLVQPGGSLRLSCAASGFTVSYSSIHWVRQAPGKGLEWVASIYSSSGYTSYADSVKGRFTISADTSKNTAYLQMNSLRAEDTAVYYCARSYYRYYLSPIYWGSWGMDYWGQGTLVTVSS VL: DIQMTQSPSSLSASVGDRVTITCRASQSVSSAVAWYQQKPGKAPKLLIYSASSLYSGVPSRFSGSRSGTDFTLTISSLQPEDFATYYCQQSGYYGHLITFGQGTKVEIKR	
		1 nM	hIgG1_LALA D25 (antibody, V domains shown) VH: EVQLVESGGGLVQPGGSLRLSCAASGFTFSSSSIHWVRQAPGKGLEWVASISPYYGSTSYADSVKGRFTISADTSKNTAYLQMNSLRAEDTAVYYCARKLEWGMFFWSPYFRALDYWGQGTLVTVSS VL: DIQMTQSPSSLSASVGDRVTITCRASQSVSSAVAWYQQKPGKAPKLLIYSASSLYSGVPSRFSGSRSGTDFTLTISSLQPEDFATYYCQQSSSSLITFGQGTKVEIK	
		25 nM	hIgG1_LALA 2W1 (antibody, V domains shown) VH: EVQLVESGGGLVQPGGSLRLSCAASGFTVSSSSIHWVRQAPGKGLEWVAYISSSSGSTYYADSVKGRFTISADTSKNTAYLQMNSLRAEDTAVYYCARDFYFGSYYSFGWGLDYWGQGTLVTVSS VL: DIQMTQSPSSLSASVGDRVTITCRASQSVSSAVAWYQQKPGKAPKLLIYSASSLYSGVPSRFSGSRSGTDFTLTISSLQPEDFATYYCQQDSSYPITFGQGTKVEIK	
		140 nM	hIgG1_LALA 2Z3 (antibody, V domains shown) VH: EVQLVESGGGLVQPGGSLRLSCAASGFTFSSSSIHWVRQAPGKGLEWVASISSSSGSTSYADSVKGRFTISADTSKNTAYLQMNSLRAEDTAVYYCARVLLGKFWYYNYYEYSAMDYWGQGTLVTVSS VL: DIQMTQSPSSLSASVGDRVTITCRASQSVSSAVAWYQQKPGKAPKLLIYSASSLYSGVPSRFSGSRSGTDFTLTISSLQPEDFATYYCQQSSSSLITFGQGTKVEIK	
2.3 nM	2.9 nM		Fab B20 (Fab, V domains shown, first discovery campaign; also called Antibody Clone B20) VH: EVQLVESGGGLVQPGGSLRLSCAASGFTISSSSIHWVRQAPGKGLEWVASISSSSGSTSYADSVKGRFTISADTSKNTAYLQMNSLRAEDTAVYYCARIRHYHWYEIPYWDWAIDYWGQGTLVTVSS VL: DIQMTQSPSSLSASVGDRVTITCRASQSVSSAVAWYQQKPGKAPKLLIYSASSLYSGVPSRFSGSRSGTDFTLTISSLQPEDFATYYCQQSSSSLITFGQGTKVEIKR	
5.8 nM	5.5 nM		Fab B25 (Fab, V domains shown, first discovery campaign; also called Antibody Clone B25) VH: EVQLVESGGGLVQPGGSLRLSCAASGFTISSSSIHWVRQAPGKGLEWVASISSYSGSTSYADSVKGRFTISADTSKNTAYLQMNSLRAEDTAVYYCARSFFKYYLWYGYHNYWSAIDYWGQGTLVTVSS VL: DIQMTQSPSSLSASVGDRVTITCRASQSVSSAVAWYQQKPGKAPKLLIYSASSLYSGVPSRFSGSRSGTDFTLTISSLQPEDFATYYCQQSSSSLITFGQGTKVEIKR	
